Values of other authors in article PMC3817581.

How the values were obtained:
Settings in all cases: not stated in this article
Asp7 = Asp7 (UniProt position 136, AAVSVDCSEYP)
Asp27 = Asp27 (UniProt position 156, PLCGSDNKTYG)
Glu19 = Glu19 (UniProt position 148, PACTLEYRPLC)
Glu43 = Glu43 (UniProt position 172, CNAVVESNGTL)
Glu10 = Glu10 (UniProt position 139, SVDCSEYPKPA)

Question: For “Turkey ovomucoid third domain (OMTKY3) (Meleagris gallopavo)”, which pKa (Asp7) is on record?
Answer: 2.5

Question: What about the pKa (Asp27) of the same substance?
Answer: 2.2

Question: And the pKa (Glu19)?
Answer: 3.2

Question: And the pKa (Glu43)?
Answer: 4.8

Question: And the pKa (Glu10)?
Answer: 4.1
